Key:
human CD33 A217S (human) = human CD33 A217S (human) (UniProt P20138); assay: alanine scan, flow cytometry
human CD33 A255S (human) = human CD33 A255S (human) (UniProt P20138); assay: alanine scan, flow cytometry
human CD33 A265S (human) = human CD33 A265S (human) (UniProt P20138); assay: alanine scan, flow cytometry
human CD33 D205A (human) = human CD33 D205A (human) (UniProt P20138); assay: alanine scan, flow cytometry
human CD33 E224A (human) = human CD33 E224A (human) (UniProt P20138); assay: alanine scan, flow cytometry
human CD33 E252A (human) = human CD33 E252A (human) (UniProt P20138); assay: alanine scan, flow cytometry
human CD33 G218A (human) = human CD33 G218A (human) (UniProt P20138); assay: alanine scan, flow cytometry
human CD33 G220A (human) = human CD33 G220A (human) (UniProt P20138); assay: alanine scan, flow cytometry
human CD33 G241A (human) = human CD33 G241A (human) (UniProt P20138); assay: alanine scan, flow cytometry
human CD33 G247A (human) = human CD33 G247A (human) (UniProt P20138); assay: alanine scan, flow cytometry
Sequence of human CD33 G247A (human) (P20138 18-364 G247A limits assumed): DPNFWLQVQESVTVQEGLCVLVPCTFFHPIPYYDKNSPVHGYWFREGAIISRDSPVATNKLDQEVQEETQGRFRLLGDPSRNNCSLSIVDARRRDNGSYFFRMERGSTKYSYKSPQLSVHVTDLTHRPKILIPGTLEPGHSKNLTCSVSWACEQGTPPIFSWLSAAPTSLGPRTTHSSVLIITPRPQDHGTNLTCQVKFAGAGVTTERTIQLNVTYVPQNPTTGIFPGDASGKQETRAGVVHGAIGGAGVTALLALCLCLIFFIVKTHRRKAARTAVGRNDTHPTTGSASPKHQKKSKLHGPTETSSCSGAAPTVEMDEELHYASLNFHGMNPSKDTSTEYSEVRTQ

human CD33 G260A (human) = human CD33 G260A (human) (UniProt P20138); assay: alanine scan, flow cytometry
human CD33 I198A (human) = human CD33 I198A (human) (UniProt P20138); assay: alanine scan, flow cytometry
human CD33 I199A (human) = human CD33 I199A (human) (UniProt P20138); assay: alanine scan, flow cytometry
human CD33 I227A (human) = human CD33 I227A (human) (UniProt P20138); assay: alanine scan, flow cytometry
human CD33 I242A (human) = human CD33 I242A (human) (UniProt P20138); assay: alanine scan, flow cytometry
human CD33 I262A (human) = human CD33 I262A (human) (UniProt P20138); assay: alanine scan, flow cytometry
Sequence of human CD33 I262A (human) (P20138 18-364 I262A limits assumed): as the sequence (P20138 18-364 G247A limits assumed) above, with A230G, I245A counted along it

human CD33 L197A (human) = human CD33 L197A (human) (UniProt P20138); assay: alanine scan, flow cytometry
human CD33 L210A (human) = human CD33 L210A (human) (UniProt P20138); assay: alanine scan, flow cytometry
human CD33 L229A (human) = human CD33 L229A (human) (UniProt P20138); assay: alanine scan, flow cytometry
human CD33 N209A (human) = human CD33 N209A (human) (UniProt P20138); assay: alanine scan, flow cytometry
human CD33 N237A (human) = human CD33 N237A (human) (UniProt P20138); assay: alanine scan, flow cytometry
Sequence of human CD33 N237A (human) (P20138 18-364 N237A limits assumed): as the sequence (P20138 18-364 G247A limits assumed) above, with N220A, A230G counted along it

human CD33 P235A (human) = human CD33 P235A (human) (UniProt P20138); assay: alanine scan, flow cytometry
human CD33 P238A (human) = human CD33 P238A (human) (UniProt P20138); assay: alanine scan, flow cytometry
human CD33 P244A (human) = human CD33 P244A (human) (UniProt P20138); assay: alanine scan, flow cytometry
human CD33 Q213A (human) = human CD33 Q213A (human) (UniProt P20138); assay: alanine scan, flow cytometry
human CD33 Q228A (human) = human CD33 Q228A (human) (UniProt P20138); assay: alanine scan, flow cytometry
human CD33 Q251A (human) = human CD33 Q251A (human) (UniProt P20138); assay: alanine scan, flow cytometry
human CD33 T200A (human) = human CD33 T200A (human) (UniProt P20138); assay: alanine scan, flow cytometry
human CD33 T208A (human) = human CD33 T208A (human) (UniProt P20138); assay: alanine scan, flow cytometry
human CD33 T211A (human) = human CD33 T211A (human) (UniProt P20138); assay: alanine scan, flow cytometry
human CD33 T223A (human) = human CD33 T223A (human) (UniProt P20138); assay: alanine scan, flow cytometry
Sequence of human CD33 T223A (human) (P20138 18-364 T223A limits assumed): as the sequence (P20138 18-364 G247A limits assumed) above, with T206A, A230G counted along it

human CD33 T226A (human) = human CD33 T226A (human) (UniProt P20138); assay: alanine scan, flow cytometry
human CD33 T239A (human) = human CD33 T239A (human) (UniProt P20138); assay: alanine scan, flow cytometry
Sequence of human CD33 T239A (human) (P20138 18-364 T239A limits assumed): as the sequence (P20138 18-364 G247A limits assumed) above, with T222A, A230G counted along it

human CD33 T253A (human) = human CD33 T253A (human) (UniProt P20138); assay: alanine scan, flow cytometry
human CD33 T268A (human) = human CD33 T268A (human) (UniProt P20138); assay: alanine scan, flow cytometry
Sequence of human CD33 T268A (human) (P20138 18-364 T268A limits assumed): as the sequence (P20138 18-364 G247A limits assumed) above, with A230G, T251A counted along it

human CD33 V221A (human) = human CD33 V221A (human) (UniProt P20138); assay: alanine scan, flow cytometry
human CD33 V257A (human) = human CD33 V257A (human) (UniProt P20138); assay: alanine scan, flow cytometry
Sequence of human CD33 V257A (human) (P20138 18-364 V257A limits assumed): as the sequence (P20138 18-364 G247A limits assumed) above, with A230G, V240A counted along it

human CD33 V258A (human) = human CD33 V258A (human) (UniProt P20138); assay: alanine scan, flow cytometry
human CD33 V267A (human) = human CD33 V267A (human) (UniProt P20138); assay: alanine scan, flow cytometry
Sequence of human CD33 V267A (human) (P20138 18-364 V267A limits assumed): as the sequence (P20138 18-364 G247A limits assumed) above, with A230G, V250A counted along it

human CD33 F44L (human) = human CD33 F44L (human) (UniProt P20138); assay: flow cytometry on transfected cells, IgG
human CD33 F44S (human) = human CD33 F44S (human) (UniProt P20138); assay: flow cytometry on transfected cells, IgG
human CD33 I47L (human) = human CD33 I47L (human) (UniProt P20138); assay: flow cytometry on transfected cells, IgG
human CD33 I47N (human) = human CD33 I47N (human) (UniProt P20138); assay: flow cytometry on transfected cells, IgG
human CD33 I47V (human) = human CD33 I47V (human) (UniProt P20138); assay: flow cytometry on transfected cells, IgG
Sequence of human CD33 I47V (human) (P20138 18-364 I47V limits assumed): as the sequence (P20138 18-364 G247A limits assumed) above, with I30V, A230G counted along it

human CD33 P48I (human) = human CD33 P48I (human) (UniProt P20138); assay: flow cytometry on transfected cells, IgG
human CD33 T42P (human) = human CD33 T42P (human) (UniProt P20138); assay: flow cytometry on transfected cells, IgG
Sequence of human CD33 T42P (human) (P20138 18-364 T42P limits assumed): as the sequence (P20138 18-364 G247A limits assumed) above, with T25P, A230G counted along it

human CD33 Y49D (human) = human CD33 Y49D (human) (UniProt P20138); assay: flow cytometry on transfected cells, IgG
Sequence of human CD33 Y49D (human) (P20138 18-364 Y49D limits assumed): as the sequence (P20138 18-364 G247A limits assumed) above, with Y32D, A230G counted along it

human CD33 Y49H (human) = human CD33 Y49H (human) (UniProt P20138); assay: flow cytometry on transfected cells, IgG
human CD33 Y49Q (human) = human CD33 Y49Q (human) (UniProt P20138); assay: flow cytometry on transfected cells, IgG
Sequence of human CD33 Y49Q (human) (P20138 18-364 Y49Q limits assumed): as the sequence (P20138 18-364 G247A limits assumed) above, with Y32Q, A230G counted along it

human CD33 Y49S (human) = human CD33 Y49S (human) (UniProt P20138); assay: flow cytometry on transfected cells, IgG
human CD33 Y50R (human) = human CD33 Y50R (human) (UniProt P20138); assay: flow cytometry on transfected cells, IgG

Sequence of human CD33 A255S (human) (P20138 18-364 A255S limits assumed): as the sequence (P20138 18-364 G247A limits assumed) above, with A230G, A238S counted along it
Sequence of human CD33 A217S (human) (P20138 18-364 A217S limits assumed): as the sequence (P20138 18-364 G247A limits assumed) above, with A200S, A230G counted along it

Substance: Refmab #7 (WM53) (antibody)
- Mean % WT Binding (human CD33 A217S (human)): 114 % WT binding
- Mean % WT Binding (human CD33 A255S (human)): 121 % WT binding
- Mean % WT Binding (human CD33 A265S (human)): 110 % WT binding
- Mean % WT Binding (human CD33 D205A (human)): 0.8 % WT binding
- Mean % WT Binding (human CD33 E224A (human)): 126 % WT binding
- Mean % WT Binding (human CD33 E252A (human)): 120 % WT binding
- Mean % WT Binding (human CD33 G218A (human)): 123 % WT binding
- Mean % WT Binding (human CD33 G220A (human)): 120 % WT binding
- Mean % WT Binding (human CD33 G241A (human)): 131 % WT binding
- Mean % WT Binding (human CD33 G247A (human)): 123 % WT binding
- Mean % WT Binding (human CD33 G260A (human)): 87.2 % WT binding
- Mean % WT Binding (human CD33 I198A (human)): 111 % WT binding
- Mean % WT Binding (human CD33 I199A (human)): 115 % WT binding
- Mean % WT Binding (human CD33 I227A (human)): 101 % WT binding
- Mean % WT Binding (human CD33 I242A (human)): 105 % WT binding
- Mean % WT Binding (human CD33 I262A (human)): 119 % WT binding
- Mean % WT Binding (human CD33 L197A (human)): 115 % WT binding
- Mean % WT Binding (human CD33 L210A (human)): 98.6 % WT binding
- Mean % WT Binding (human CD33 L229A (human)): 114 % WT binding
- Mean % WT Binding (human CD33 N209A (human)): 128 % WT binding
- Mean % WT Binding (human CD33 N237A (human)): 116 % WT binding
- Mean % WT Binding (human CD33 P235A (human)): 112 % WT binding
- Mean % WT Binding (human CD33 P238A (human)): 129 % WT binding
- Mean % WT Binding (human CD33 P244A (human)): 99 % WT binding
- Mean % WT Binding (human CD33 Q213A (human)): 103 % WT binding
- Mean % WT Binding (human CD33 Q228A (human)): 115 % WT binding
- Mean % WT Binding (human CD33 Q251A (human)): 108 % WT binding
- Mean % WT Binding (human CD33 T200A (human)): 97.6 % WT binding
- Mean % WT Binding (human CD33 T208A (human)): 102 % WT binding
- Mean % WT Binding (human CD33 T211A (human)): 98.1 % WT binding
- Mean % WT Binding (human CD33 T223A (human)): 110 % WT binding
- Mean % WT Binding (human CD33 T226A (human)): 99.1 % WT binding
- Mean % WT Binding (human CD33 T239A (human)): 112 % WT binding
- Mean % WT Binding (human CD33 T253A (human)): 112 % WT binding
- Mean % WT Binding (human CD33 T268A (human)): 148 % WT binding
- Mean % WT Binding (human CD33 V221A (human)): 99.7 % WT binding
- Mean % WT Binding (human CD33 V257A (human)): 124 % WT binding
- Mean % WT Binding (human CD33 V258A (human)): 98.8 % WT binding
- Mean % WT Binding (human CD33 V267A (human)): 92.6 % WT binding
- Mean % WT Binding (human CD33 F44L (human)): 99.6 % WT binding
- Mean % WT Binding (human CD33 F44S (human)): 31.8 % WT binding
- Mean % WT Binding (human CD33 I47L (human)): 37.4 % WT binding
- Mean % WT Binding (human CD33 I47N (human)): 4.7 % WT binding
- Mean % WT Binding (human CD33 I47V (human)): 97.4 % WT binding
- Mean % WT Binding (human CD33 P48I (human)): 0.1 % WT binding
- Mean % WT Binding (human CD33 T42P (human)): 15.9 % WT binding
- Mean % WT Binding (human CD33 Y49D (human)): 3.9 % WT binding
- Mean % WT Binding (human CD33 Y49H (human)): 27.8 % WT binding
- Mean % WT Binding (human CD33 Y49Q (human)): 0.7 % WT binding
- Mean % WT Binding (human CD33 Y49S (human)): 3.6 % WT binding
- Mean % WT Binding (human CD33 Y50R (human)): 1.7 % WT binding
